Test results from the supplement of paper PMC10567573.

B1: ZNF511 (parent)
chain: HLYPADFRFDKPKKSRSPASAEAP

Variants of: B1
Experiment: protein stability index of a GFP-peptide fusion (GPS, HEK-293T) (PSI 1-6); higher = more stable
Settings: c terminus: a fixed tail appended
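Further: lentivirally expressed fusions sorted by FACS into six bins by GFP to DsRed ratio, PSI derived from sequencing read proportions per bin multiplied by bin number.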

Variant | protein stability index
HLYPADFRFDKPQKSRSPASAEAP | 3.4
HLYPADFRFDKPVKSRSPASAEAP | 2.22
HLYPADFRFDKPMKSRSPASAEAP | 2.84
HLYPADFRFDKPSKSRSPASAEAP | 2.91
HLYPADFRFDKPRKSRSPASAEAP | 3.2
HLYPADFRFDKPLKSRSPASAEAP | 2.94
HLYPADFRFDKPIKSRSPASAEAP | 3
HLYPADFRFDKPAKSRSPASAEAP | 3.07
HLYPADFRFDKPTKSRSPASAEAP | 3.18
HLYPADFRFDKPNKSRSPASAEAP | 2.7
HLYPADFRFDKPDKSRSPASAEAP | 3.04
HLYPADFRFDKPFKSRSPASAEAP | 2.7
HLYPADFRFDKPPKSRSPASAEAP | 3.64
HLYPADFRFDKPEKSRSPASAEAP | 3.34
HLYPADFRFDKPWKSRSPASAEAP | 2.58
HLYPADFRFDKPGKSRSPASAEAP | 2.92
HLYPADFRFDKPCKSRSPASAEAP | 2.8
HLYPADFRFDKPHKSRSPASAEAP | 2.78
HLYPADFRFDKPYKSRSPASAEAP | 3.56
HLYPADFRHDKPKKSRSPASAEAP | 2.91
HLYPADFRCDKPKKSRSPASAEAP | 2.61
HLYPADFRYDKPKKSRSPASAEAP | 3.29
HLYPADFRDDKPKKSRSPASAEAP | 2.1
HLYPADFRRDKPKKSRSPASAEAP | 3.71

Variant | protein stability index
HLYPADFRTDKPKKSRSPASAEAP | 2.85
HLYPADFRADKPKKSRSPASAEAP | 1.29
HLYPADFRKDKPKKSRSPASAEAP | 4.12
HLYPADFRPDKPKKSRSPASAEAP | 2.35
HLYPADFREDKPKKSRSPASAEAP | 1.88
HLYPADFRLDKPKKSRSPASAEAP | 3.18
HLYPADFRNDKPKKSRSPASAEAP | 2.63
HLYPADFRWDKPKKSRSPASAEAP | 2.82
HLYPADFRIDKPKKSRSPASAEAP | 2.49
HLYPADFRGDKPKKSRSPASAEAP | 2.63
HLYPADFRMDKPKKSRSPASAEAP | 2.01
HLYPADFRSDKPKKSRSPASAEAP | 2.05
HLYPADFRQDKPKKSRSPASAEAP | 2
HLYPADFRFDKPKKSDSPASAEAP | 3.18
HLYPADFRFDKPKKSNSPASAEAP | 3.17
HLYPADFRFDKPKKSPSPASAEAP | 3.2
HLYPADFRFDKPKKSKSPASAEAP | 3.36
HLYPADFRFDKPKKSISPASAEAP | 2.6
HLYPADFRFDKPKKSQSPASAEAP | 3.28
HLYPADFRFDKPKKSTSPASAEAP | 3.44
HLYPADFRFDKPKKSASPASAEAP | 3.51
HLYPADFRFDKPKKSYSPASAEAP | 2.13
HLYPADFRFDKPKKSGSPASAEAP | 3.29
HLYPADFRFDKPKKSWSPASAEAP | 3.05

Variant | protein stability index
HLYPADFRFDKPKKSFSPASAEAP | 2.73
HLYPADFRFDKPKKSESPASAEAP | 3.34
HLYPADFRFDKPKKSVSPASAEAP | 2.51
HLYPADFRFDKPKKSLSPASAEAP | 2.97
HLYPADFRFDKPKKSSSPASAEAP | 2.76
HLYPADFRFDKPKKSCSPASAEAP | 2.54
HLYPADFRFDKPKKSHSPASAEAP | 3.13
HLYPADFRFDKPKKSMSPASAEAP | 3.28
HLYPADFRFDKTKKSRSPASAEAP | 3.7
HLYPADFRFDKNKKSRSPASAEAP | 2.65
HLYPADFRFDKWKKSRSPASAEAP | 3.02
HLYPADFRFDKYKKSRSPASAEAP | 2.94
HLYPADFRFDKEKKSRSPASAEAP | 3.69
HLYPADFRFDKKKKSRSPASAEAP | 2.96
HLYPADFRFDKGKKSRSPASAEAP | 3.02
HLYPADFRFDKDKKSRSPASAEAP | 3.2
HLYPADFRFDKRKKSRSPASAEAP | 2.47
HLYPADFRFDKHKKSRSPASAEAP | 2.89
HLYPADFRFDKQKKSRSPASAEAP | 3.18
HLYPADFRFDKLKKSRSPASAEAP | 3.25
HLYPADFRFDKAKKSRSPASAEAP | 2.83
HLYPADFRFDKVKKSRSPASAEAP | 2.8
HLYPADFRFDKSKKSRSPASAEAP | 2.64
HLYPADFRFDKMKKSRSPASAEAP | 2.72

Variant | protein stability index
HLYPADFRFDKFKKSRSPASAEAP | 3.14
HLYPADFRFDKIKKSRSPASAEAP | 3.72
HLYPADFRFDKCKKSRSPASAEAP | 2.94
HLYPADFRFDKPKPSRSPASAEAP | 2.63
HLYPADFRFDKPKISRSPASAEAP | 2.67
HLYPADFRFDKPKGSRSPASAEAP | 3.22
HLYPADFRFDKPKFSRSPASAEAP | 2.26
HLYPADFRFDKPKSSRSPASAEAP | 3.08
HLYPADFRFDKPKCSRSPASAEAP | 2.77
HLYPADFRFDKPKMSRSPASAEAP | 3.17
HLYPADFRFDKPKQSRSPASAEAP | 2.39
HLYPADFRFDKPKVSRSPASAEAP | 2.33
HLYPADFRFDKPKLSRSPASAEAP | 3.24
HLYPADFRFDKPKWSRSPASAEAP | 2.56
HLYPADFRFDKPKESRSPASAEAP | 3.23
HLYPADFRFDKPKRSRSPASAEAP | 2.01
HLYPADFRFDKPKYSRSPASAEAP | 2.62
HLYPADFRFDKPKNSRSPASAEAP | 3.04
HLYPADFRFDKPKTSRSPASAEAP | 2.8
HLYPADFRFDKPKDSRSPASAEAP | 3.29
HLYPADFRFDKPKASRSPASAEAP | 3.3
HLYPADFRFDKPKHSRSPASAEAP | 2.37
